Experimental data: US20040058394A1 (Biogen, published 2004)
Where a chain is given by its changes, count along the chain named. Names and notes keep the numbering of the source.

B1: L2/V93A H2 (VL#2 with the V93A variant of VH#2) (antibody, V domains shown)
VH: EVQLVESGGGLVKPGGSLRLSCAASGFTFSDYYMYWFRQAPGKGLEWVATISDGGSYTYYPDSVKGRFTISRDNAKNSLYLQMSSLRAEDTAVYYCAREENGNFYYFDYWGQGTTVTVSS
VL: DIQMTQSPSSLSASVGDRVTITCKAGQDIKSYLSWYQQKPWKAPKILIYYATRLADGVPSRFSGSGSGTDYTLTISSLQPEDFATYYCLQHGESPWTFGGGTKLEIK
notes: Human IgG1 / kappa constant regions; also called pAND072/pAND090
B2: huCBE11 #4 (VL#3 with VH#4) (antibody, human IgG1, V domains shown)
VH: B1 VH
VL: DIQMTQSPSSLSASVGDRVTITCKAGQDIKSYLSWYQQKPGKAPKLLIYYATRLADGVPSRFSGSGSGTDYTLTISSLQPEDFATYYCLQHGESPWTFGGGTKLEIKR
notes: Full mature chains with human IgG1 and kappa constant domains; also called hCBE11; pAND076/pAND090
B3: chimeric CBE11 (chCBE11) (antibody, V domains shown)
VH: B1 VH with R19K, A40T, G42E, G44R, S78N, R87K, A88S, V93M, A97V
VL: DIKMTQSPSSMYASLGERVTITCKAGQDIKSYLSWYQQKPWKSPKILIYYATRLADGVPSRFSGSGSGQDYSLTISSLESDDTATYYCLQHGESPWTFGGGTKLEIK
notes: the latter is followed; also called pEAG982/pEAG983
B4: huCBE11 #2 (VL#2 with VH#2) (antibody, human IgG1, V domains shown)
VH: B1 VH with A97V
VL: B1 VL
notes: also called huCBE#2; pAND072/pAND073
B5: huCBE11 #3 (VL#3 with VH#3) (antibody, human IgG1, V domains shown)
VH: B1 VH with F37V
VL: B1 VL with W41G, I46L
notes: also called pAND076/pAND077
B6: L2/H3 (VL#2 with VH#3) (antibody, human IgG1, V domains shown)
VH: B1 VH with F37V
VL: B1 VL
notes: Mix and match co-transfection; Human IgG1 / kappa constant regions; also called pAND072/pAND077
B7: L3/H2 (VL#3 with VH#2) (antibody, human IgG1, V domains shown)
VH: B1 VH with A97V
VL: B1 VL with W41G, I46L
notes: Mix and match co-transfection; Human IgG1 / kappa constant regions; also called pAND076/pAND073
B8: huCBE11 #1 (VL#1 with VH#1) (antibody, human IgG1, V domains shown)
VH: B1 VH with A40T, V93M, A97V
VL: B1 VL with Q3K, T69Q
notes: also called pAND068/pAND069

What was measured:
[1] = molecular target: T1, lymphotoxin beta receptor (LT-β-R) (human, UniProt P36941 31-435); experiment: FACS staining of HT-29 cells with conditioned medium, PE anti-human IgG
T1 construct: whole, on cells; also called LT-β receptor
Description: Expression vectors were co-transfected into 293-EBNA cells and transfected cells were tested for antibody secretion and specificity (empty vector-transfected cells served as negative control). […] To examine the individual contributions of each of these changes, new heavy chain expression vectors were constructed. Plasmid pAND089, the F37V variant of VH#2, was made by subcloning the 311 bp NotI-PstI fragment from pAND075, the 126 bp PstI-HindIII fragment from pAND071, and the 1.21 kb HindIII-NotI fragment from the plasmid pEAG964 into the NotI site of the pCEP4 EBV expression vector-derived plasmid pCH269. Plasmid pAND090, the V93A variant of VH#2, was made by subcloning the 311 bp NotI-PstI fragment from pAND071, the 126 bp PstI-HindIII fragment from pAND075, and the 1.21 kb HindIII-NotI fragment from the plasmid pEAG964 into the NotI site of the pCEP4 EBV expression vector-derived plasmid pCH269. These H2/H3 chimeric heavy chains were co-transfected into 293-EBNA cells with VL#2 or VL#3. […] The pAND076 and pAND090 pairing was designated huCBE11 #4 (Table 1 supra).
Conditioned medium from transiently transfected cells was used to stain HT-29 cells by incubating for 30 min on ice, washing cells twice with FACS buffer (PBS with 5% FBS and 0.05% sodium azide), staining with PE-conjugated anti-human IgG (H+L), Jackson ImmunoResearch Laboratories, Inc., for 30 min on ice in FACS buffer, washing cells twice with FACS buffer, and resuspending in FACS buffer for analysis.

[2] = molecular target: T1, lymphotoxin beta receptor (LT-β-R); experiment: FACS titration on HT-29 cells, 4°C, non-specific binding subtracted, four parameter fit (functional affinity)
Description: HuCBE11 #4 anti-LTβR antibody and humanized anti-CD40L as a negative control were diluted in PBS and a 12 point serial 1:4 dilution was made to a final concentration range of 2.37 pM-10 μM. 100 μL cell suspension and 100 μL antibody dilution were added together to each well of a 96 well V-bottom microtiter plate. The antibody and the cells were incubated at 4° C. for 2 hours. The plate was centrifuiged at 1000 rpm (110×g) for 10 minutes at 4° C. The supernatant was discarded and the cell pellet was washed with cold PBS six times.
Goat-anti human IgG-phycoerythrin conjugate (Jackson Immunoresearch) was diluted 1:100 in PBS and 200 μL was added to each well. The cells were incubated with this secondary antibody for one hour at 4° C., centrifuged as described above, and washed once in cold PBS. The cells were then transferred to polystyrene test tubes. Fluorescence intensity was measured on a FACS Calibur instrument (Beckton Dickinson).
These specific fluorescence intensity values were then plotted against huCBE11 #4 concentrations on a log scale. The resulting curve is bell shaped and symmetrical, and reflects self-inhibition of the antibody binding at high concentrations. The left half of this curve was fit to a four parameter equation to find the functional affinity of the antibody. The resulting curve fit gives an EC₅₀ value of 60 pM for the huCBE11 #4 binding to HT-29 cells.

T1 sequence (P36941 31-435): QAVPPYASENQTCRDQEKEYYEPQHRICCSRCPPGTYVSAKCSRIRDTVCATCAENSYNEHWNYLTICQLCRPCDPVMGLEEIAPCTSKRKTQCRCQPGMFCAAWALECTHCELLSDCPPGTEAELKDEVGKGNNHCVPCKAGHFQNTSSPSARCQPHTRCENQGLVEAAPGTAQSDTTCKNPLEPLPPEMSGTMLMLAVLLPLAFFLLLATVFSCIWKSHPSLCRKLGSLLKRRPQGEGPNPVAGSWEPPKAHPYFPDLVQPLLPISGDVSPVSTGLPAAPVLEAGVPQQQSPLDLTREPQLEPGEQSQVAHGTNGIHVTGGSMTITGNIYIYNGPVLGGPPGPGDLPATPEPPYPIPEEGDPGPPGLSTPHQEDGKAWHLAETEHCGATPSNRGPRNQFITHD

Row | Binder | Relative MFI [1] | EC50 [2]
1 | B1 | 0.75 MFI normalized to chCBE11 | –
2 | B2 | 1 MFI normalized to chCBE11 | 0.06 nM
3 | B3 | 1 MFI normalized to chCBE11 | –
4 | B4 | 1 MFI normalized to chCBE11 | –
5 | B5 | 0.62 MFI normalized to chCBE11 | –
6 | B6 | 0.42 MFI normalized to chCBE11 | –
7 | B7 | 1 MFI normalized to chCBE11 | –
8 | B8 | 1 MFI normalized to chCBE11 | –
